Measured values: paper PMC2747101

Molecular target: hCD40ADD (human CD40 with its TRAF binding site PVQETLH changed to PVQATDD) (human) (UniProt P25942)
Experiment: co-IP

B1: TNF receptor-associated factor 2 (natural protein)
chain: MAAASVTSPGSLELLQPGFSKTLLGTRLEAKYLCSACKNILRRPFQAQCGHRYCSFCLTSILSSGPQNCAACVYEGLYEEGISILESSSAFPDNAARREVESLPAVCPNDGCTWKGTLKEYESCHEGLCPFLLTECPACKGLVRLSEKEHHTEQECPKRSLSCQHCRAPCSHVDLEVHYEVCPKFPLTCDGCGKKKIPRETFQDHVRACSKCRVLCRFHTVGCSEMVETENLQDHELQRLREHLALLLSSFLEAQASPGTLNQVGPELLQRCQILEQKIATFENIVCVLNREVERVAVTAEACSRQHRLDQDKIEALSNKVQQLERSIGLKDLAMADLEQKVSELEVSTYDGVFIWKISDFTRKRQEAVAGRTPAIFSPAFYTSRYGYKMCLRVYLNGDGTGRGTHLSLFFVVMKGPNDALLQWPFNQKVTLMLLDHNNREHVIDAFRPDVTSSSFQRPVSDMNIASGCPLFCPVSKMEAKNSYVRDDAIFIKAIVDLTGL
For B1, the fold reduction of co-immunoprecipitated TRAF2 against hCD40 was 2 fold.
